Substitutions are numbered along the chain they refer to. Each block holds one binder with its values, some of them ahead of it.
Molecular target: T1, soluble human CD3ε chain (human, UniProt P07766 23-126, limits assumed)
T1 construct: the text says soluble human CD3ε chain; also called human CD3 epsilon chain
Test: SPR (Biacore)

T1 sequence (P07766 23-126 limits assumed): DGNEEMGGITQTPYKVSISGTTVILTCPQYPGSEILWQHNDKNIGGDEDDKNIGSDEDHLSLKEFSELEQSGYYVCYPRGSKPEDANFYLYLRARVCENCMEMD

Kd: 29.3 nM
B1: TR01H040-E22Hh/none-Hi-Kn010G3/TR01L008-k0 (antibody, human IgG1, kappa, L234A L235A, N297A)
heavy: QVQLVESGGGLVQPGRSLRLSCAASGFTFSNAWMHWVRQAPGKGLEWVAQIKDKSQNYATYYAESVKGRFTISRADSKNSIYLQMNSLKTEDTAVYYCRYVHYSASYGVDAWGQGTTVTVSSASTKGPSVFPLAPSSKSTSGGTAALGCLVKDYFPEPVTVSWNSGALTSGVHTFPAVLQSSGLYSLSSVVTVPSSSLGTQTYICNVNHKPSNTKVDKKVEPKSCDKTHTCPPCPAPEAAGGPSVFLFPPKPKDTLMISRTPEVTCVVVDVSHEDPEVKFNWYVDGVEVHNAKTKPREEQYASTYRVVSVLTVLHQDWLNGKEYKCKVSNKALPAPIEKTISKAKGQPREPQVYTLPPSRCELTKNQVSLSCAVKGFYPSDIAVEWESNGQPENNYKTTPPVLDSDGSFFLVSKLTVDKSRWQQGNVFSCSVMHEALHNHYTQKSLSLSPDYKDDDDK
chain: EPKSSDKTHTCPPCPAPELLGGPSVFLFPPKPKDTLMISRTPEVTCVVVDVSHEDPEVKFNWYVDGVEVHNAKTKPREEQYNSTYRVVSVLTVLHQDWLNGKEYKCKVSNKALPAPIEKTISKAKGQPREPQVCTLPPSRDELTKNQVSLWCLVKGFYPSDIAVEWESNGQPENNYKTTPPVLDSDGSFFLYSKLTVDKSRWQQGNVFSCSVMHEALHNRYTQKSLSLSP
light: DIVMTQSPLSLPVTPGEPASISCQASESLVHSNRNTYLHWYQQKPGQAPRLLIYKVSNRFRGVPDRFSGSGSGTDFTLKISRVEAEDVGVYYCGQGTQVPYTFGQGTKLEIKRTVAAPSVFIFPPSDEQLKSGTASVVCLLNNFYPREAKVQWKVDNALQSGNSQESVTEQDSKDSTYSLSSTLTLSKADYEKHKVYACEVTHQGLSSPVTKSFNRGEC
notes: single-arm

Kd: 67.9 nM
B2: TR01H049-E22Hh/none-Hi-Kn010G3/L0000-k0 (antibody, human IgG1, kappa, L234A L235A, N297A)
heavy: B1 heavy with A75D
chain: B1 chain
light: B1 light with Q24R, A25S, E27Q, R61S
notes: single-arm

Kd: 43.1 nM
B3: TR01H065-E22Hh/none-Hi-Kn010G3/L0000-k0 (antibody, human IgG1, kappa, L234A L235A, N297A)
heavy: B1 heavy with A75D, S104A
chain: B1 chain
light: B1 light with Q24R, A25S, E27Q, R61S
notes: single-arm

Kd: 32.8 nM
B4: TR01H040-E22Hh/none-Hi-Kn010G3/TR01L010-k0 (antibody, human IgG1, kappa, L234A L235A, N297A)
heavy: B1 heavy
chain: B1 chain
light: B1 light with Q24R, A25S, E27Q, L109V, K112E
notes: single-arm

Kd: 35.7 nM
B5: TR01H040-E22Hh/none-Hi-Kn010G3/TR01L011-k0 (antibody, human IgG1, kappa, L234A L235A, N297A)
heavy: B1 heavy
chain: B1 chain
light: B1 light with L109V, K112E
notes: single-arm

Kd: 30.7 nM
B6: TR01H064-E22Hh/none-Hi-Kn010G3/L0000-k0 (antibody, human IgG1, kappa, L234A L235A, N297A)
heavy: B1 heavy with A23S, S104A
chain: B1 chain
light: B1 light with Q24R, A25S, E27Q, R61S
notes: single-arm

Kd: 31.3 nM
B7: TR01H062-E22Hh/none-Hi-Kn010G3/L0000-k0 (antibody, human IgG1, kappa, L234A L235A, N297A)
heavy: B1 heavy with S104A
chain: B1 chain
light: B1 light with Q24R, A25S, E27Q, R61S
notes: single-arm

Kd: 2.52 nM
B8: TR01H040-E22Hh/none-Hi-Kn010G3/TR01L016-k0 (antibody, human IgG1, kappa, L234A L235A, N297A)
heavy: B1 heavy
chain: B1 chain
light: B1 light with Q24R, A25S, E27Q, L29P, Q42L, A48S, R50Q, R61S, G94Y
notes: single-arm

Kd: 59.3 nM
B9: TR01H067-E22Hh/none-Hi-Kn010G3/L0201-k0 (antibody, human IgG1, kappa, L234A L235A, N297A)
heavy: B1 heavy with A75D, I81L, S104A
chain: B1 chain
light: B1 light with Q24R, A25S, E27Q, S28P, L29P, R61S
notes: single-arm

Kd: 43.5 nM
B10: TR01H063-E22Hh/none-Hi-Kn010G3/L0000-k0 (antibody, human IgG1, kappa, L234A L235A, N297A)
heavy: B1 heavy with L11V, R16G, S104A
chain: B1 chain
light: B1 light with Q24R, A25S, E27Q, R61S
notes: single-arm

Kd: 35.6 nM
B11: TR01H040-E22Hh/none-Hi-Kn010G3/TR01L009-k0 (antibody, human IgG1, kappa, L234A L235A, N297A)
heavy: B1 heavy
chain: B1 chain
light: B1 light with Q24R, A25S, E27Q, Q42L, A48S, R50Q
notes: single-arm

Kd: 57.6 nM
B12: TR01H050-E22Hh/none-Hi-Kn010G3/L0000-k0 (antibody, human IgG1, kappa, L234A L235A, N297A)
heavy: B1 heavy with A75D, A111Y
chain: B1 chain
light: B1 light with Q24R, A25S, E27Q, R61S
notes: single-arm

Kd: 18.8 nM
B13: TR01H061-E22Hh/none-Hi-Kn010G3/L0222-k0 (antibody, human IgG1, kappa, L234A L235A, N297A)
heavy: B1 heavy with S104A, A111I
chain: B1 chain
light: B1 light with Q24R, A25S, E27Q, L29P, L38I, H39Q, R61S, G94Y
notes: single-arm

Kd: 60.3 nM
B14: TR01H067-E22Hh/none-Hi-Kn010G3/L0200-k0 (antibody, human IgG1, kappa, L234A L235A, N297A)
heavy: B1 heavy with A75D, I81L, S104A
chain: B1 chain
light: B1 light with Q24R, A25P, E27Q, L29P, R61S
notes: single-arm

Kd: 31.6 nM
B15: TR01H041-E22Hh/none-Hi-Kn010G3/L0000-k0 (antibody, human IgG1, kappa, L234A L235A, N297A)
heavy: B1 heavy with A111Y
chain: B1 chain
light: B1 light with Q24R, A25S, E27Q, R61S
notes: single-arm

Kd: 38.8 nM
B16: TR01H055-E22Hh/none-Hi-Kn010G3/L0000-k0 (antibody, human IgG1, kappa, L234A L235A, N297A)
heavy: B1 heavy with Q56N, A75D, I81L, A111I
chain: B1 chain
light: B1 light with Q24R, A25S, E27Q, R61S
notes: single-arm

Kd: 42.3 nM
B17: TR01H046-E22Hh/none-Hi-Kn010G3/L0000-k0 (antibody, human IgG1, kappa, L234A L235A, N297A)
heavy: B1 heavy with A23S, A111Y
chain: B1 chain
light: B1 light with Q24R, A25S, E27Q, R61S
notes: single-arm

Kd: 3.2 nM
B18: TR01H040-E22Hh/none-Hi-Kn010G3/TR01L019-k0 (antibody, human IgG1, kappa, L234A L235A, N297A)
heavy: B1 heavy
chain: B1 chain
light: B1 light with L29P, Q42L, A48S, R50Q, R61S, G94Y
notes: single-arm

Kd: 35.2 nM
B19: TR01H044-E22Hh/none-Hi-Kn010G3/L0000-k0 (antibody, human IgG1, kappa, L234A L235A, N297A)
heavy: B1 heavy with A23S, A111I
chain: B1 chain
light: B1 light with Q24R, A25S, E27Q, R61S
notes: single-arm

Kd: 42.2 nM
B20: TR01H040-E22Hh/none-Hi-Kn010G3/TR01L012-k0 (antibody, human IgG1, kappa, L234A L235A, N297A)
heavy: B1 heavy
chain: B1 chain
light: B1 light with Q24R, A25S, E27Q, Q42L, A48S, R50Q, L109V, K112E
notes: single-arm

Kd: 60.2 nM
B21: TR01H066-E22Hh/none-Hi-Kn010G3/L0000-k0 (antibody, human IgG1, kappa, L234A L235A, N297A)
heavy: B1 heavy with I81L, S104A
chain: B1 chain
light: B1 light with Q24R, A25S, E27Q, R61S
notes: single-arm

Kd: 45.1 nM
B22: TR01H040-E22Hh/none-Hi-Kn010G3/TR01L018-k0 (antibody, human IgG1, kappa, L234A L235A, N297A)
heavy: B1 heavy
chain: B1 chain
light: B1 light with L29P, Q42L, A48S, R50Q, R61S
notes: single-arm

Kd: 47.9 nM
B23: TR01H067-E22Hh/none-Hi-Kn010G3/L0203-k0 (antibody, human IgG1, kappa, L234A L235A, N297A)
heavy: B1 heavy with A75D, I81L, S104A
chain: B1 chain
light: B1 light with Q24R, A25S, E27Q, L29P, L38I, R61S
notes: single-arm

Kd: 20.4 nM
B24: TR01H047-E22Hh/none-Hi-Kn010G3/L0000-k0 (antibody, human IgG1, kappa, L234A L235A, N297A)
heavy: B1 heavy with Q56N, A75D, A111I
chain: B1 chain
light: B1 light with Q24R, A25S, E27Q, R61S
notes: single-arm

Kd: 39.5 nM
B25: TR01H040-E22Hh/none-Hi-Kn010G3/TR01L015-k0 (antibody, human IgG1, kappa, L234A L235A, N297A)
heavy: B1 heavy
chain: B1 chain
light: B1 light with Q24R, A25S, E27Q, L29P, Q42L, A48S, R50Q, R61S
notes: single-arm

Kd: 41.5 nM
B26: TR01H040-E22Hh/none-Hi-Kn010G3/TR01L013-k0 (antibody, human IgG1, kappa, L234A L235A, N297A)
heavy: B1 heavy
chain: B1 chain
light: B1 light with Q42L, A48S, R50Q, L109V, K112E
notes: single-arm

Kd: 29.1 nM
B27: TR01H051-E22Hh/none-Hi-Kn010G3/L0000-k0 (antibody, human IgG1, kappa, L234A L235A, N297A)
heavy: B1 heavy with Q56N, I81L, A111I
chain: B1 chain
light: B1 light with Q24R, A25S, E27Q, R61S
notes: single-arm

Kd: 45.2 nM
B28: TR01H048-E22Hh/none-Hi-Kn010G3/L0000-k0 (antibody, human IgG1, kappa, L234A L235A, N297A)
heavy: B1 heavy with A75D, A111I
chain: B1 chain
light: B1 light with Q24R, A25S, E27Q, R61S
notes: single-arm

Kd: 15.2 nM
B29: TR01H043-E22Hh/none-Hi-Kn010G3/L0000-k0 (antibody, human IgG1, kappa, L234A L235A, N297A)
heavy: B1 heavy with A23S, Q56N, A111I
chain: B1 chain
light: B1 light with Q24R, A25S, E27Q, R61S
notes: single-arm

Kd: 47.1 nM
B30: TR01H061-E22Hh/none-Hi-Kn010G3/L0226-k0 (antibody, human IgG1, kappa, L234A L235A, N297A)
heavy: B1 heavy with S104A, A111I
chain: B1 chain
light: B1 light with Q24R, A25S, E27Q, L29P, L38I, R61S, G94I
notes: single-arm

Kd: 12.7 nM
B31: TR01H061-E22Hh/none-Hi-Kn010G3/L0200-k0 (antibody, human IgG1, kappa, L234A L235A, N297A)
heavy: B1 heavy with S104A, A111I
chain: B1 chain
light: B1 light with Q24R, A25P, E27Q, L29P, R61S
notes: single-arm

Kd: 15.4 nM
B32: TR01H061-E22Hh/none-Hi-Kn010G3/L0215-k0 (antibody, human IgG1, kappa, L234A L235A, N297A)
heavy: B1 heavy with S104A, A111I
chain: B1 chain
light: B1 light with Q24R, A25S, E27Q, S28P, L29P, L38I, R61S
notes: single-arm

Kd: 52.2 nM
B33: TR01H045-E22Hh/none-Hi-Kn010G3/L0000-k0 (antibody, human IgG1, kappa, L234A L235A, N297A)
heavy: B1 heavy with A23S
chain: B1 chain
light: B1 light with Q24R, A25S, E27Q, R61S
notes: single-arm

Kd: 62.7 nM
B34: TR01H052-E22Hh/none-Hi-Kn010G3/L0000-k0 (antibody, human IgG1, kappa, L234A L235A, N297A)
heavy: B1 heavy with I81L, A111I
chain: B1 chain
light: B1 light with Q24R, A25S, E27Q, R61S
notes: single-arm

Kd: 44.8 nM
B35: TR01H042-E22Hh/none-Hi-Kn010G3/L0000-k0 (antibody, human IgG1, kappa, L234A L235A, N297A)
heavy: B1 heavy with L11V, R16G
chain: B1 chain
light: B1 light with Q24R, A25S, E27Q, R61S
notes: single-arm

Kd: 17.1 nM
B36: TR01H061-E22Hh/none-Hi-Kn010G3/L0000-k0 (antibody, human IgG1, kappa, L234A L235A, N297A)
heavy: B1 heavy with S104A, A111I
chain: B1 chain
light: B1 light with Q24R, A25S, E27Q, R61S
notes: single-arm

From patent publication US20210388110A1 (published 2021)
